Measured values: patent US20240287172A1 (SCIRHOM, published 2024)
Where a chain is given by its changes, count along the chain named.

T1: hiR2-FL-H585A-T7 (human, UniProt Q6PJF5 1-856)
T1 sequence: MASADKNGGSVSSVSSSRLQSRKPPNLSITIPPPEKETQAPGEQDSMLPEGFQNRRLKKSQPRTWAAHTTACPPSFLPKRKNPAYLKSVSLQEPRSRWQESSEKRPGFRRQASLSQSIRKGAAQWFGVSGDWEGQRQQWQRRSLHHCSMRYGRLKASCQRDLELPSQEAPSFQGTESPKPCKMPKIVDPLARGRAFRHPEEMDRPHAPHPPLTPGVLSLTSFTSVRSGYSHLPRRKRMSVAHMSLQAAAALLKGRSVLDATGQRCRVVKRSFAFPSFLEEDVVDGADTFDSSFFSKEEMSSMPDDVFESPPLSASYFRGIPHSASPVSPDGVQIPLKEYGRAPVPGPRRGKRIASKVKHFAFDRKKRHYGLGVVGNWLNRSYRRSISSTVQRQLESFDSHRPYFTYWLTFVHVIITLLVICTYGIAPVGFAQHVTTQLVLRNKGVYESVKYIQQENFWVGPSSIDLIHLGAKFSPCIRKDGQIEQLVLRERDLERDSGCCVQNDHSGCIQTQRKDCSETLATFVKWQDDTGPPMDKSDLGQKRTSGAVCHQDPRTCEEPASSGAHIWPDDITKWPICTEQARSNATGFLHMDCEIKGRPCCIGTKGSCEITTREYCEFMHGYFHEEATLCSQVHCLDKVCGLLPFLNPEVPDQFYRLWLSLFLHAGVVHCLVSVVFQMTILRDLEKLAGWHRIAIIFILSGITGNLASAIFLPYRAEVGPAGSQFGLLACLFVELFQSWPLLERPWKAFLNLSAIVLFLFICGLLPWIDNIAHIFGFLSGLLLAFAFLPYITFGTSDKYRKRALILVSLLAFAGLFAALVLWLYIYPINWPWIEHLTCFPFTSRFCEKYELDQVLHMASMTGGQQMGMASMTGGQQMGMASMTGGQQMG

T2: hiR2-FL-I566A-T7 (human, UniProt Q6PJF5 1-856)
T2 sequence: T1 sequence with I566A, A585H

B1: antibody 3 (antibody, V domains shown)
VH: QVTLKESGPGILQPSQTLSLTCSFSGFSLTTFAMGIGWVRQPSGKGLEWLAHIWWDGEKYNNPVLKSRLTISKDTSKNQVFLRIANVDTPDTATYYCARISSIYYIIDNWGQGTSVTVSS
VL: DIVLTQSPATLSVTPGHSVSLSCRASQSISNNLHWYQKKSHESPRLLIKYVSQSISGIPSRFSGSGSGTDFTLSINSVETEDFGMYFCQQSYNWPLTFGAGTKLELK
notes: mouse IgG, kappa light chain; also called clone #3; purified antibody 3
B2: antibody 34 (antibody, V domains shown)
VH: QVTLKESGPGILQPSQTLSLTCSFSGFSLSTFSLGVGWIRQSSGKGLEWLAHIWWDDEKYYNPALKSRLTISKDTSKNQVFLKIANVDAADTATYYCARAYYSKSYYALDYWGQGTSVTVSS
VL: DIQMTQSPSSLSASLGERVSLTCRASQEISGYLSWLQQKPDGTIKRLIYAASTLDSGVPKRFSGSRSGSDYSLAISSLESEDFADYYCLQYANFPFTFGSGTKLEIK
notes: mouse IgG, kappa light chain; also called clone #34; purified antibody 34

How the values were obtained:
hiR2-FL-H585A-T7 = biological target: T1, hiR2-FL-H585A-T7; test: FACS on MEF-DKO cells expressing the variant, 3 µg/ml antibody
How it was run: (§1)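 Primary stain: antibody 3 μg/ml, 1 h on ice; controls buffer alone. Secondary: PE anti-mouse IgG F(ab′)2 1:100, 1 h on ice, light-protected. Washes at 4° C; read by flow cytometry.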

hiR2-FL-I566A-T7 = biological target: T2, hiR2-FL-I566A-T7; test: as above
How it was run: as §1

Binder | loss of binding vs wild type (hiR2-FL-H585A-T7) | loss of binding vs wild type (hiR2-FL-I566A-T7)
B1 | ≥ 30% | –
B2 | – | ≥ 30%
